The supplement of paper PMC7877785
± gives the uncertainty stated by the source.

Experiment: self-splicing fitness, log relative to wild type (ln ratio); higher = more splicing; Tetrahymena group I intron in knt gene, E. coli kanamycin selection, DiMSum; sequences stand for … in CUCUCU…GGAGGGAAAAGUUAUCAGGCAUGCACCUGGUAGCUAGUCUUUAAACCAAUAGAUUGCAUCGGUUUAAAAGGCAAGACCGUCAAAUUGCGGGAAAGGGGUCAACAGCCGUUCAGUACCAAGUCUCAGGGGAAACUUUGAGAUGGCCUUGCAAAGGGUAUGGUAAUAAGCUGACGGACAUGGUCCUAACCACGCAGCCAAGUCCUAAGUCAACAGAUCUUCUGUUGAUAUGGAUGCAGUUCACAGACUAAAUGUCGGUCGGGGAAGAUGUAUUCUUCUCAUAAGAUAUAGUCGGACCUCUCCUUAAUGGGAGCUAGCGGAUGAAGUGAUGCAACACUGGAGCCGCUGGGAACUAAUUUGUAUGCGAAAGUAUAUUGAUUAGUUUUGGAGUACUCGUGGUCG
Outline: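 Colonies from six replicate transformations of E. coli BL21(DE3) were pooled and amplicon-sequenced on an Illumina HiSeq 2500. The library placed an intron with all eight P1ex-region nucleotides randomised inside the knt kanamycin-resistance gene on pET-22b(+), and cells grew overnight at 37°C or 30°C on LB agar with or without 25 μg/mL kanamycin (plus 100 μg/mL carbenicillin, 50 μM IPTG, 0.2% rhamnose). Fitness is the DiMSum error-weighted combination of wild-type-normalised replicate fold changes, kanamycin versus none.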

Sequence	self-splicing fitness (ln) (30 °C)	self-splicing fitness (ln) (37 °C)
AAGAAGCAAUAUUACGUUGU	-3.2 ± 0.1	-2.06 ± 0.11
GCAUAGCAAUAUUACGUCCU	-1.16 ± 0.12	-0.534 ± 0.15
UAGUAGCAAUAUUACGCUCU	-1.71 ± 0.16	-0.589 ± 0.17
GCCAAGCAAUAUUACGGACG	-1.6 ± 0.14	0.0859 ± 0.18
UAUCAGCAAUAUUACGAUCC	-1.32 ± 0.11	0.203 ± 0.13
AUAGAGCAAUAUUACGGCGG	-1.71 ± 0.1	-1.32 ± 0.13
AAACAGCAAUAUUACGUUAU	-2.23 ± 0.072	-1.22 ± 0.085
UGGUAGCAAUAUUACGACAG	-0.598 ± 0.3	-0.713 ± 0.38
UGAUAGCAAUAUUACGCAAC	-3.43 ± 0.44	–
ACCAAGCAAUAUUACGCCAG	-2.75 ± 0.16	-1.42 ± 0.18
ACGAAGCAAUAUUACGACUG	-0.657 ± 0.09	-0.396 ± 0.098
UGAUAGCAAUAUUACGGACG	-0.432 ± 0.1	-0.181 ± 0.15
AGAUAGCAAUAUUACGGGCG	-1.16 ± 0.14	0.433 ± 0.15
GGUCAGCAAUAUUACGCAUG	-1.15 ± 0.1	-0.079 ± 0.12
AUUUAGCAAUAUUACGCUCG	-0.131 ± 0.1	0.715 ± 0.15
GUCCAGCAAUAUUACGUUCU	-2.35 ± 0.09	-0.777 ± 0.08
GCUUAGCAAUAUUACGGCGU	-0.354 ± 0.1	-0.748 ± 0.11
UGUUAGCAAUAUUACGAGAA	-2.27 ± 0.34	-1.85 ± 0.38
UUGGAGCAAUAUUACGGGGC	-3.04 ± 0.28	-3.26 ± 0.47
CCAUAGCAAUAUUACGCAUG	-3.37 ± 0.19	-0.732 ± 0.13
UGCGAGCAAUAUUACGAAGA	-3.24 ± 0.37	-1.97 ± 0.28
AUGUAGCAAUAUUACGACGC	-0.952 ± 0.12	0.119 ± 0.082
AAAGAGCAAUAUUACGGUAA	-1.74 ± 0.3	-1.67 ± 0.26
AGGUAGCAAUAUUACGUGAU	-2.479 ± 0.016	-1.53 ± 0.034
GGCGAGCAAUAUUACGCUGC	-2.58 ± 0.39	-0.462 ± 0.37
AUGAAGCAAUAUUACGUCGC	-2.24 ± 0.14	-1.28 ± 0.18

Sequence	self-splicing fitness (ln) (30 °C)	self-splicing fitness (ln) (37 °C)
GCUGAGCAAUAUUACGGUCG	-2.59 ± 0.17	-2.24 ± 0.22
UCCCAGCAAUAUUACGAUGG	-3.71 ± 0.13	-2.31 ± 0.15
AAUAAGCAAUAUUACGCAUC	-2.56 ± 0.12	-1.66 ± 0.15
UAUAAGCAAUAUUACGAUCU	-1.22 ± 0.11	0.0539 ± 0.12
GUGGAGCAAUAUUACGAGUU	–	-1.7 ± 0.43
UUGAAGCAAUAUUACGGAAU	-3.36 ± 0.14	-1.15 ± 0.12
UAACAGCAAUAUUACGGAGC	–	-2.58 ± 0.29
UUGGAGCAAUAUUACGACAG	-1.57 ± 0.15	-1.23 ± 0.18
GUCGAGCAAUAUUACGCGAC	-2.57 ± 0.2	-2.12 ± 0.29
GUUGAGCAAUAUUACGCUGA	-3.9 ± 0.35	-2.61 ± 0.24
UCCGAGCAAUAUUACGAGGA	-3.04 ± 0.25	-2.5 ± 0.29
UCUCAGCAAUAUUACGGGAG	-2.79 ± 0.2	-1.4 ± 0.16
GUCAAGCAAUAUUACGGUGU	-2.05 ± 0.071	-0.734 ± 0.083
GGGCAGCAAUAUUACGUUGA	-1.3 ± 0.081	-0.64 ± 0.098
GCAGAGCAAUAUUACGCAUU	-3.11 ± 0.16	-2.3 ± 0.2
CUAAAGCAAUAUUACGGGCA	-3.06 ± 0.14	-2.54 ± 0.21
UCUAAGCAAUAUUACGGUUA	-3.9 ± 0.42	-1.76 ± 0.17
GUACAGCAAUAUUACGAGGC	-3.95 ± 0.46	-1.41 ± 0.18
AAACAGCAAUAUUACGUUUU	-3.81 ± 0.11	-3 ± 0.15
CAUAAGCAAUAUUACGUACG	-0.507 ± 0.053	0.239 ± 0.074
CCACAGCAAUAUUACGGCCC	-2.78 ± 0.29	–
UCCAAGCAAUAUUACGGUAC	-4.3 ± 0.23	-2.81 ± 0.24
GGCUAGCAAUAUUACGCCAG	-1.55 ± 0.23	–
CCAUAGCAAUAUUACGCUUU	-4.72 ± 0.28	-3.1 ± 0.2
AUGCAGCAAUAUUACGUCAU	-3.12 ± 0.14	-2.26 ± 0.12
CAUGAGCAAUAUUACGUUAC	-3.24 ± 0.15	-3.39 ± 0.2

Sequence	self-splicing fitness (ln) (30 °C)	self-splicing fitness (ln) (37 °C)
AGAAAGCAAUAUUACGUCCG	-0.86 ± 0.096	0.226 ± 0.14
AGCCAGCAAUAUUACGCACA	-1.96 ± 0.13	-0.518 ± 0.11
GGAUAGCAAUAUUACGUUAC	-1.87 ± 0.12	-1.26 ± 0.15
CAGUAGCAAUAUUACGUAAU	-4 ± 0.28	-2.63 ± 0.44
GAUAAGCAAUAUUACGGUCU	-2.33 ± 0.12	-1.46 ± 0.14
AUAAAGCAAUAUUACGUCAC	-3.46 ± 0.14	-3.09 ± 0.2
CCCCAGCAAUAUUACGCUUG	-3.52 ± 0.17	-3.06 ± 0.2
UAUUAGCAAUAUUACGAUCU	-0.883 ± 0.12	0.167 ± 0.17
AGACAGCAAUAUUACGCCGA	-2.06 ± 0.089	-0.863 ± 0.094
UCUCAGCAAUAUUACGGGAA	-2.28 ± 0.17	-0.762 ± 0.11
UGUUAGCAAUAUUACGUCCG	-0.342 ± 0.15	0.113 ± 0.22
UCCCAGCAAUAUUACGUUCA	-0.991 ± 0.093	-0.824 ± 0.1
GCCCAGCAAUAUUACGCUAC	-3.18 ± 0.21	-2.72 ± 0.29
AAAAAGCAAUAUUACGAAGU	-2.08 ± 0.13	-0.998 ± 0.15
UCCAAGCAAUAUUACGUGAA	-0.666 ± 0.074	0.295 ± 0.1
CCGAAGCAAUAUUACGUUGA	-3.76 ± 0.15	-3.45 ± 0.17
UAUCAGCAAUAUUACGGACA	0.27 ± 0.15	-0.681 ± 0.17
GUAAAGCAAUAUUACGUGCU	-2.34 ± 0.11	-0.431 ± 0.12
CGAAAGCAAUAUUACGGACA	-0.806 ± 0.074	0.186 ± 0.091
GCGAAGCAAUAUUACGAUGG	-2.12 ± 0.13	-0.641 ± 0.14
AGGUAGCAAUAUUACGCGGG	-3.612 ± 0.026	-2.38 ± 0.037
CAUUAGCAAUAUUACGUAGC	-3.25 ± 0.19	-2.4 ± 0.17
UUGAAGCAAUAUUACGAGCA	-0.381 ± 0.12	0.224 ± 0.14
GAAUAGCAAUAUUACGCUGA	-2.56 ± 0.31	-0.623 ± 0.22
